Source: the RNAGym collection of RNA variant scans (doi:10.1073/pnas.2313332121)
This sample holds only a part of the variants without activity.

B1: TPR 5TU (parent)
chain: GGAUCUUCUCGAUCUAACAAAAAAGACAAAUCUGCCACAAAGCUUGAGAGCAUCUUCGGAUGCAGAGGCGGCAGCCUUCGGUGGCGCGAUAGCGCCAACGUUCUCAACUAUGACACGCAAAACGCGUGCUCCGUUGAAUGGAGUUUAUCAUG

Variants of: B1
Assay: polymerase ribozyme fitness, log enrichment relative to wild type (log ratio); higher = more active; in vitro selection for triplet polymerase activity
Procedure, shortened: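 Input and output libraries were sequenced on Illumina after a single in vitro selection round, run in triplicate on PCR-built, transcribed mutant libraries of each subunit of a heterodimeric triplet polymerase ribozyme. Selection annealed libraries to a biotinylated primer, the partner subunit and triplets, incubated them frozen at −7 °C, then gel-excised extended constructs for streptavidin-bead capture and RT-PCR. Genotypes with ≥10 input reads and ≥1 read per output were kept. Fitness is the logarithm, taken in base 2, of genotype enrichment divided by wild-type enrichment, using inverse-variance-weighted replicate averages.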

Going from GGAUCUUCUGGAUCUAACAAAAAAGAAAAAUCUGCCACUAAGCUUGAGAGCAUCUUCGGAUGCAGAGGCGGCAGACUUCGGUGGCGCGAUACCGCCUACGUUCUCAACUAUGACACGCAAUACGCGUGCUCCGUUGAAUGGAGUUUAUCAUG [C10G C27A A39U C75A G92C A97U A121U] to GGAUCUUCUGGAUCUAACAAAAAAGACAAAUGUGCCAGAAAGCUUGAGAGCAUCGUCGGAUGCAGAGGCGGCAGCCUUCGGUGGCGAGAUAACGCCAACGUUCUCAACUAUGACACGCAAAACGGAUGCUCCGUUGAAUGGAGUUUAUCAUG [C10G C32G C38G U55G C87A G92A C125G G126A], the “polymerase ribozyme fitness (log ratio)” value rises from at most -4.2 to -4.1.

GGAUCUUCUGGAUCUAACAAAAAAGACAAAUCUGCCACAAAGCUUGAGAGCAUCUUCGGAUGCAGAGGCGGCUGCAUUCGGUGGGGCGAUAGCGCCAACGUUCUCAACUAUGACACGCAAAACGCGUGCUCCGUUGAAUGGAGUUUAUCAUG [C10G A73U C76A C85G] and GGAUCUUCUGGAUCUAACAAAAAAGACAAAUAUGCCACAAAGCUUGAGAGCAUCUUCGGAUGCAGAGGCGGCAGCCUUCGGUGGCUCGAUACCGCCAACGUUCUCAACUAUGACACGCAAAACACGUGCUCCGUUGGAUGGAGUUUAUCAUG [C10G C32A G86U G92C G124A A137G] cannot be ordered by “polymerase ribozyme fitness (log ratio)” value: at most -4.2 for the first, at most -4.2 for the second.

GGAUCUUCUGGAUCUAACAAAAAAGACAAAUCUGCUACAAAGCUUGAGAGCAUCUUCGGAUGCAGAGGCCGCAGCCUUAGGUGGCGCGAUAGCGGCAACGUUCUCAACUAUGACUCGCAAAACGCGUGCUCCGUUGAAUGGAGUUUAUCAUG [C10G C36U G70C C79A C95G A115U] and GGAUCUUCUGGAUCUAACAAAAAAGACAAAUCUGCCACAAAGCUUGAGAGCAUCUUCGGAUGCAGAGGCGGCAGCCUUCGGUGGCGCGAUGGCGCCGACGUUCUCAAAUAUGACACGGAAAACGCGUGCUCCGUUGAAUGGAGUUUAUCAUG [C10G A91G A97G C108A C118G] cannot be ordered by “polymerase ribozyme fitness (log ratio)” value: at most -4.2 for the first, at most -4.2 for the second.

GGAUCUUCUGGAUCUAACAAAAAAGACAAAUCUGCGACAAAGCUUGUGAGCAUCUUCGGAUGCAUAGGCGGCAGCCUUGGGUGGCGCGAUAGUGCCAAGGUUCUCAACUAUGACACGCAAAACGCCUGCUCCGUUGAAUGGAGCUUACCAUG [C10G C36G A47U G65U C79G C93U C99G G126C U144C U148C] and GGAUCUUCUGGAUCUAACAAAAAAGACAAAUCUGCCACAAAGCUUGAGAGCAUCUUCGGAUGCAGAGGCGGCAGCCUUCGGUGGCGCGCUAGCGCCAACGUUCUCAACUAUGACACGCAAAACGCGUGCUCCGUUGAAUGGAGUUUACCAUG [C10G A89C U148C] cannot be ordered by “polymerase ribozyme fitness (log ratio)” value: at most -4.2 for the first, at most -4.2 for the second.

Compared with GGAUCUUCUGGAUCUAACAAAAAAGACAAAUCUGUCACAAAGCUUGAGAGCAUCUUCGGAUGCAGAGGCGGCAGCCUUCGGUGGCGCGAUAGCGCCAACGUUCUCAACUAUGACACGCAAAACGCGUGCUCCGUUGAAUGGAGUUUAUCAUG [C10G C35U], GGAUCUUCUGGAUCUAAUAAAAAAGACAAAUCUGCCACAAAGCUUGAGAGCAUCUUCGGAUGCAGAGGCGGCAGCCUUCGGUGGGGCGAUAGCGCCAACGUUCUCAACUAUGACACGCAAAACGCGUGCUCCUUUGAGUGGAGUUUAUCAUG [C10G C18U C85G G133U A138G] is lower in “polymerase ribozyme fitness (log ratio)” value: -3.4 for the first, at most -4.2 for the second.

GGAUCUUCUGGAUCUAACAAAAAAGACAAAUCUGCCAUAAAGCUUGAGAGCAUCUUCGGAUGCAGAGGCGGCAGCCUUCGGUGGCGAGAUAGGGCCAACGUUCUCAACUAUGACACGCAAAACGCGUGCUCCGUUGAAUGGAGUUUAUCAUG [C10G C38U C87A C93G] and GGAUCUUCUGGAUCUAACAAAAAAGACAAAUCUGCCAAAAAGCUUGAGAGCAUCUUCGGAUGCAGAGGCGGCAGCCUUCGGUGGCGCAAUAGCGCCUACGUUCUCAACUAUGACACGCAAAACGCGUGCUCCGUUGAAUGGAGUUUAUCAUG [C10G C38A G88A A97U] cannot be ordered by “polymerase ribozyme fitness (log ratio)” value: at most -4.2 for the first, at most -4.2 for the second.

GGAUCUUCUGGAUCUAAGAAAAAAGACAAAUCUGCCACAAAUCUUGAGCACAUCUUCGGAUGCAGAGGCGGCAACCUUCGGUGGCGCGAUAGCGCCAACGUUCUCAACUAUGACACGCAAAACGCGUGCUCCCUUGAAUGGAAUUUAUCAUG [C10G C18G G42U A49C G50A G74A G133C G143A] and GGAUCUUCUGGAUCUAACAAAAAAGAUAAAUCUGCCACAAAGCUUGAGAGCAUCUUCGGAAGCAGAGGCGGCAGCCUUCGGUGGCGCGAUAGCGCCAAAGUUCUCAACUAUGACACGCAAAACGCGUGCUCCGUUGAAUGGAGUUUAUCAUG [C10G C27U U61A C99A] cannot be ordered by “polymerase ribozyme fitness (log ratio)” value: at most -4.2 for the first, at most -4.2 for the second.

GGAUCUUCUGGAUCUAAUAAAAAAGACAAAUCUGCCACAAAGCUUGAGAGCAUCUUCGUAUGCAGAGGCGGCAGCCUUCGGUGGCACGAUAGCGCCAACGUUAUCAACUAUGACACGCAAAACGCGUGCUCCGUUGAAUGGAGUUUAUCAUG [C10G C18U G59U G86A C103A] and GGAUCUUCUGGAUCUAACAAAAAAGACAAAUCUGCCACAAAGCUUGAGAGCCUCUUCGGAUGCAGAGGCGGCAGCCUUCGGUGGCGCGAUAGUGCCAACGUUCUCAACUAUGACACGCAAAACGCGUGCUCCGUUGAAUGGAGUUUAUCAUG [C10G A52C C93U] cannot be ordered by “polymerase ribozyme fitness (log ratio)” value: at most -4.2 for the first, at most -4.2 for the second.

GGAUCUUCUGGAUCUAACAAAAAAGACAAAUCUGCCACAAAGCUUGAGAGUAUCUUCGGAUGCAGAGGCGGCAGCCUUCGGUGGCGCGAUAACGCCAACGUUCUCAACUAUGACACGCAAAACCCGUGCUCCGUUGAAUGGAGUUUAUCAUG [C10G C51U G92A G124C] and GGAUCUUCUGGAUCUAACAAAAAAGACAAAUCUGCCACAAAGCUUGAGAGCAUCUUCGGAUGCAGAGGCGGCUGCCUUCGGUGGCGCGAUAGCGCCAACGUUCUCAACUAUGACACGCAAAACGCGUUCUCCGUUGAAUGGAGUUUAUCAUG [C10G A73U G128U] cannot be ordered by “polymerase ribozyme fitness (log ratio)” value: at most -4.2 for the first, at most -4.2 for the second.

In the case of GGAUCUUCUGGAUCUAACAAAAAAGACAAAUCUGCUACAAAGCUUGAGAGCAUCAUCGGAUGCAGAGGCGGCAGCCUUCGGUGGCGCGAUAGCGUCAACGUUCUCAACUAUGACACGCAAAACGCGUGCUCCUUUGAAUGGAGUUUAUCAUG [C10G C36U U55A C95U G133U], the “polymerase ribozyme fitness (log ratio)” value is reported as at most -4.2.
